Source: patent publication US20220332804A1 (CSL INNOVATION, published 2022)
Numbering of substitutions follows the chain as printed.

Columns and labels:
Experiment in all cases: SPR, antibody captured, C2 as analyte;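 also: biacore SPR at 37 °C, anti-C2 mAbs captured via goat anti-human IgG on CM5 chips, double-referenced sensorgrams fit to a 1:1 kinetic or steady-state model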
[1] = target: T1, human C2 Y702A (human, UniProt P06681 21-752)
T1 sequence: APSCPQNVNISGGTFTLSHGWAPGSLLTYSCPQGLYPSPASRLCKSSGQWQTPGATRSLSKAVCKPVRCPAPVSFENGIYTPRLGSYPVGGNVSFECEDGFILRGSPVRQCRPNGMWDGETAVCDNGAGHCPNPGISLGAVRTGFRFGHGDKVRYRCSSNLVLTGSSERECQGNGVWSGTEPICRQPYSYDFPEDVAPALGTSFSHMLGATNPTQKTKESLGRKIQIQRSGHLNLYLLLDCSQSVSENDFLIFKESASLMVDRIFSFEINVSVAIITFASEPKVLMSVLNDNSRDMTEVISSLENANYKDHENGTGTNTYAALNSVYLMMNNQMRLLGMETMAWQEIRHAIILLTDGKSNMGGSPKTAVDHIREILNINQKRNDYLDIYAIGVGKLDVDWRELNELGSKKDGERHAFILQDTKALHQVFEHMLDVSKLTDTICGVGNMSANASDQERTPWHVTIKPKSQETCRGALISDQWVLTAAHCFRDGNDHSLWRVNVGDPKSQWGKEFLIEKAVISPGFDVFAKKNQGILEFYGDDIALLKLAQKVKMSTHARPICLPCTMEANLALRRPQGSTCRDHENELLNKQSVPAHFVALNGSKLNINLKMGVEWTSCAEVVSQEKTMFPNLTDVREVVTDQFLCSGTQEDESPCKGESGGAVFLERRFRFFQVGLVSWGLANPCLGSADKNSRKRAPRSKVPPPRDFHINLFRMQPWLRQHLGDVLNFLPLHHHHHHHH

[2] = target: T2, human C2 D710A (human, UniProt P06681 21-752)
T2 sequence: T1 sequence with A682Y, D690A

[3] = target: T3, human C2 H331A (human, UniProt P06681 21-752)
T3 sequence: T1 sequence with H311A, A682Y

[4] = target: T4, human C2 K676S (human, UniProt P06681 21-752)
T4 sequence: T1 sequence with K656S, A682Y

B1: RF16-226 (antibody, human IgG4 S228P, lambda)
heavy: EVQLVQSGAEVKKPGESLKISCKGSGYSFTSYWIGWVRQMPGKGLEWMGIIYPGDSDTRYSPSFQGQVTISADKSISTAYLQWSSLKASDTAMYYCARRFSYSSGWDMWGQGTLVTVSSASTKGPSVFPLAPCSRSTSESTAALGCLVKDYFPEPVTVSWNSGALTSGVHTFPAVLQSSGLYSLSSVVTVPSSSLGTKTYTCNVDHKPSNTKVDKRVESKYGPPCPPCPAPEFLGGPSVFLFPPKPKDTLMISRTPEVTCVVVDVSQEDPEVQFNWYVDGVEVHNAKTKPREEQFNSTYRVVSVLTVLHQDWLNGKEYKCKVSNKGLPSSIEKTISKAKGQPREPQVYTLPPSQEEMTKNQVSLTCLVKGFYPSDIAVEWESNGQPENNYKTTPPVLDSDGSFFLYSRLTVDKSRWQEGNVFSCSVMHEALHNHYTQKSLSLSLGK
light: SYELTQPPSVSVSPGQTARITCSGDALTSKYVAWYQQKSGLAPLLVIYEDTRRPSGIPAKFSGSSSGSVATLTISGAHGDDEADYYCYSTDASGHQRVFGGGTKLTVLSQPKAAPSVTLFPPSSEELQANKATLVCLISDFYPGAVTVAWKADGSPVKAGVETTKPSKQSNNKYAASSYLSLTPEQWKSHRSYSCQVTHEGSTVEKTVAPTECS
notes: pH-dependent anti-C2 antibody from a phage display library; also called WT
[1]
  Kd: 106 nM
[2]
  Kd: 97.4 nM
[3]
  binding result: no binding
[4]
  Kd: 16.3 nM
